Measurements reported in patent publication US20190144543A1 (TAYU HUAXIA BIOTECH MEDICAL GROUP, published 2019).

Assays:
[1] = target: T1, human PD-1 (hPD-1) expressed on cells (human, UniProt Q15116 25-288)
[2] = target: T1, human PD-1 (hPD-1) expressed on cells; test: cell based RBA (hPD-1/hPD-L1): blocking of Biotin-hPD-L1 binding to CHOK1-hPD-1 cells, flow cytometry
hPD-1mIg fusion protein [3] = target: T2, hPD-1mIg fusion protein (human; mouse, UniProt Q15116 25-170); test: SPR, Biacore T200, hPD-1mIg immobilized at 33 RU on CM5, antibody as analyte
T2 construct: extracellular domain; also called hPD-mIg; not shown: CH2-CH3 domain of mouse IgG2a heavy chain (plasmid pmIgG)
T2 sequence (Q15116 25-170): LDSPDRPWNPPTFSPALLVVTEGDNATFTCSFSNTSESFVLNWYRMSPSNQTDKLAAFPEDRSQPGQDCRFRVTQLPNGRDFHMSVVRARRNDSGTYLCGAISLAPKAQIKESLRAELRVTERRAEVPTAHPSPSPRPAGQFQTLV

[4] = target: T1, human PD-1 (hPD-1) expressed on cells; test: cell-based or functional assay
[5] = target: T1, human PD-1 (hPD-1) expressed on cells; test: flow cytometry, FACS binding to CHOK1-hPD-1 cells
Procedure: (§1) The bindings of the antibodies to hPD-1 and cross-reactivity to cynomolgus monkey PD-1 (cPD-1) were tested using hPD-1 or cPD-1 expressing CHOK1 cells by flow cytometry. CHOK1-hPD-1, CHOK1-cPD-1 and CHOK1 blank cells were incubated with a serial dilution of test articles followed by Alexa Fluor® 488 conjugated goat anti-human IgG (H+L) antibody, and analyzed using a FACSCanto II (BD Biosciences, San Jose, Calif.).

[6] = target: T3, cynomolgus monkey PD-1 (cPD-1) expressed on cells (cynomolgus monkey, UniProt B0LAJ3 25-288); test: flow cytometry, FACS binding to CHOK1-cPD-1 cells
T3 construct: also called CHOK1-cPD-1; PD-1 on cynomolgus monkey T cell
T3 sequence (B0LAJ3 entry or part of it limits assumed): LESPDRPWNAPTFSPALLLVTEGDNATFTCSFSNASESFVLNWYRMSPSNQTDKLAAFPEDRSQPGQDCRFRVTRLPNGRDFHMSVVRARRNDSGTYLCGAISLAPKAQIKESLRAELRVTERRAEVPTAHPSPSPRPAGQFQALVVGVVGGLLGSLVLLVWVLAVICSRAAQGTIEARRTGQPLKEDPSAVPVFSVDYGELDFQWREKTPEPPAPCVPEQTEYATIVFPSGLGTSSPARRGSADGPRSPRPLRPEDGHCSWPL
Procedure: as §1

hPD-1mIg fusion protein [7] = target: T2, hPD-1mIg fusion protein; test: SPR, Biacore T100, hPD-1mIg immobilized on CM5, antibody as analyte
Procedure: The binding affinity and kinetics of the humanized PD-1 mAbs interact with hPD-1 protein was assessed with Biacore T100 (GE Healthcare Life Sciences). […] Nine different concentrations were tested for each sample. Detailed binding kinetic parameters (association rate, Ka, dissociation rate, Kd, and affinity constant, KD) can be determined by full kinetic analysis.

T1 sequence (Q15116 25-288): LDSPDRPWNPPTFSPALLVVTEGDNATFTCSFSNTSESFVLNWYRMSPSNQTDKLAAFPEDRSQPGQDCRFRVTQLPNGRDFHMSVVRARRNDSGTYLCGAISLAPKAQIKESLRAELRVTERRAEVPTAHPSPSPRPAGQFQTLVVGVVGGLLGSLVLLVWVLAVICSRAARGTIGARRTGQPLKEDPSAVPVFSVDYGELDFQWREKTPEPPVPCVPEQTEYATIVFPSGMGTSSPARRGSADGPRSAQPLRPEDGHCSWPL

Molecule	EC50 (read off the curve) [5] [nM]	EC50 (read off the curve) [6] [nM]	other results
control human IgG4 (antibody)			EC50 of luciferase signal (RLU), PD-1/PD-L1 Blockade Bioassay with Jurkat-PD1 and CHO-PD-L1 cells; the Ctrl IgG4 curve is flat at about 270000 RLU and never rises [1]: 12.4 µg/mL; Inhibition rate [2]: 4.8%
Variant 3 (TY101) (humanized, VH variant a / VK variant c) (antibody, V domains shown, hIgG4 is the negative control; also called mutant combination 3) VH: EVQLVESGGGLVQPGGSLRLSCAASGFTFSSYTMSWVRQAPGKGLEWVSYISHGGGDTYYADSVKGRFTISRDNSKNTLYLQMNSLRAEDTAVYYCARHSGYERGYYYVMDYWGQGTLVTVSS VL: DIQLTQSPDSLSVSLGERATINCKASESVDYYGFSFLNWFQQKPGQPPKLLIYAASNRQSGVPDRFSGSGSGTDFTLTISSLQAEDVAVYFCQQSKEVPWTFGQGTKLEIKR			fold slower dissociation rate Kd than the two commercial antibodies (Pembrolizumab, Nivolumab) (hPD-1mIg fusion protein [3]): 10 times; EC50 of luciferase signal (RLU), PD-1/PD-L1 Blockade Bioassay with Jurkat-PD1 and CHO-PD-L1 cells [4]: 0.224 µg/mL
TY101-4G1 (antibody, V domains shown, TY101 is Variant 3 (VH a, VK c); isotype control is hIgG4; also called TY101 clone TY101-4G1) VH: EVQLVESGGGLVQPGGSLRLSCAASGFTFSSYTMSWVRQAPGKGLEWVSYISHGGGDTYYADSVKGRFTISRDNSKNTLYLQMNSLRAEDTAVYYCARHSGYERGYYYVMDYWGQGTLVTVSS VL: DIQLTQSPDSLSVSLGERATINCKASESVDYYGFSFLNWFQQKPGQPPKLLIYAASNRQSGVPDRFSGSGSGTDFTLTISSLQAEDVAVYFCQQSKEVPWTFGQGTKLEIKR	~0.9	~2	
TY101-01-09 (antibody, V domains shown, TY101 is Variant 3 (VH a, VK c); isotype control is hIgG4; also called TY101 clone TY101-01-09) VH: EVQLVESGGGLVQPGGSLRLSCAASGFTFSSYTMSWVRQAPGKGLEWVSYISHGGGDTYYADSVKGRFTISRDNSKNTLYLQMNSLRAEDTAVYYCARHSGYERGYYYVMDYWGQGTLVTVSS VL: DIQLTQSPDSLSVSLGERATINCKASESVDYYGFSFLNWFQQKPGQPPKLLIYAASNRQSGVPDRFSGSGSGTDFTLTISSLQAEDVAVYFCQQSKEVPWTFGQGTKLEIKR	~0.9	~2	
TY101-04-T3-05 (antibody, V domains shown, TY101 is Variant 3 (VH a, VK c); isotype control is hIgG4; also called TY101 clone TY101-04-T3-05) VH: EVQLVESGGGLVQPGGSLRLSCAASGFTFSSYTMSWVRQAPGKGLEWVSYISHGGGDTYYADSVKGRFTISRDNSKNTLYLQMNSLRAEDTAVYYCARHSGYERGYYYVMDYWGQGTLVTVSS VL: DIQLTQSPDSLSVSLGERATINCKASESVDYYGFSFLNWFQQKPGQPPKLLIYAASNRQSGVPDRFSGSGSGTDFTLTISSLQAEDVAVYFCQQSKEVPWTFGQGTKLEIKR	~0.9	~2	
Variant 4 (humanized, VH variant b / VK variant a) (antibody, V domains shown, also called mutant combination 4) VH: EVQLVESGGGLVQPGGSLRLSCAASGFTFSSYTMSWVRQAPGKGLEWVSYISHGGGDTYYPDSVKGRFTISRDNSKNTLYLQMNSLRAEDTAVYYCARHSGYERGYYYVMDYWGQGTLVTVSS VL: DIVMTQSPDSLAVSLGERATINCKSSESVDYYGFSFLNWFQQKPGQPPKLLIYAASNRESGVPDRFSGSGSGTDFTLTISSLQAEDVAVYYCQQSKEVPWTFGQGTKLEIKR			kon (hPD-1mIg fusion protein [7]): 119000 M⁻¹ s⁻¹
